Changes are numbered by the printed parent chain.
T1: plasminogen-depleted human Fibrinogen (EMD/Calbiochem) (human, UniProt P02671 20-629; P02675 31-491; P02679 27-437, limits assumed)
T1 construct: Bought protein, IgG-depleted, coated on ELISA plates; also called FGN
T1 sequence (looked up) 1: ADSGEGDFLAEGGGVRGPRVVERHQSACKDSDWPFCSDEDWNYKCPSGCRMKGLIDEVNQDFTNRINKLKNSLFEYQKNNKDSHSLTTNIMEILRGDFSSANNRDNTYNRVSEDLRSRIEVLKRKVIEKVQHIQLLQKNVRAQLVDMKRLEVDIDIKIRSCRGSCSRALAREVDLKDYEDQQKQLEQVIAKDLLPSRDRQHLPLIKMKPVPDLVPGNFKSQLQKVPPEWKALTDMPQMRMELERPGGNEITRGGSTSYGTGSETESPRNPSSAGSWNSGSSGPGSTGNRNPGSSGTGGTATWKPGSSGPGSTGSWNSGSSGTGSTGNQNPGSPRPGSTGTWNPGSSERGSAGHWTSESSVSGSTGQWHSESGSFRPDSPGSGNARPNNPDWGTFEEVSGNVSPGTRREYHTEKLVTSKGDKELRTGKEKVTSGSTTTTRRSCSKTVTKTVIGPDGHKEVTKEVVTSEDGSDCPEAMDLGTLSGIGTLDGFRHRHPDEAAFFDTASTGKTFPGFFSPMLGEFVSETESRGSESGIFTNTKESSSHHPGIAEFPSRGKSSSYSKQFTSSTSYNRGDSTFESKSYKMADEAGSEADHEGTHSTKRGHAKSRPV
T1 sequence (looked up) 2: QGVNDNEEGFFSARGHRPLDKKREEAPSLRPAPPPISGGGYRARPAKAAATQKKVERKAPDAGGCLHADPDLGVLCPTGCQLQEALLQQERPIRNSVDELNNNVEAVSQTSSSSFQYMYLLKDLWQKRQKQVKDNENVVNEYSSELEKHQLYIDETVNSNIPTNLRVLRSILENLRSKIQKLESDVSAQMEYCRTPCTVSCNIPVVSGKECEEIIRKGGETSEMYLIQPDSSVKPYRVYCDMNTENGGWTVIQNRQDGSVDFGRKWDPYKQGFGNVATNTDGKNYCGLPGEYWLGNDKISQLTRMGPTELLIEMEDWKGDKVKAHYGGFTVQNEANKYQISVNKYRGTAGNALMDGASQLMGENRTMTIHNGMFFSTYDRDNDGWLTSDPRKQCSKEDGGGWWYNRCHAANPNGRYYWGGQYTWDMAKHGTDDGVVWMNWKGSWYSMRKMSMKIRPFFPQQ
T1 sequence (looked up) 3: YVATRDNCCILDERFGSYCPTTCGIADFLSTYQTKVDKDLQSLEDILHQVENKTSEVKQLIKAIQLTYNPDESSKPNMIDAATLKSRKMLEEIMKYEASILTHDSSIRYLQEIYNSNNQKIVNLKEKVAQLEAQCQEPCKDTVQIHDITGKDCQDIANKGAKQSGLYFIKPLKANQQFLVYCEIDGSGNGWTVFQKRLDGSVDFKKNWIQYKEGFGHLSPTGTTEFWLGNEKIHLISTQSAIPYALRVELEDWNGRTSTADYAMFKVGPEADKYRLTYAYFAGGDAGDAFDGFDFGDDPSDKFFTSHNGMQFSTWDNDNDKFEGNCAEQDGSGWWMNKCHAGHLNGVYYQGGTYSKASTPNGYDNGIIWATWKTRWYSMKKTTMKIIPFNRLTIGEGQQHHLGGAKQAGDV

T2: P2 peptide comprising SEQ ID NO: 31 (human fibrin γ377-395) (human)
T2 construct: Bought (CPC Scientific 920712); also called human P2 peptide
T2 peptide: YSMKKTTMKIIPFNRLTIG

B1: humanized VH5/Vκ2 antibody (antibody, IgG1, V domains shown)
VH: QVQLVQSGAEVKKPGSSVKVSCKASGYTFTSYWIHWVRQAPGQGLEWIGLIDPSDSYTNYNQKFRGRVTITRDTSTSTAYMELSSLRSEDTAVYYCASSDPTGCWGQGTTVTVSS
VL: DIVMTQAAFSNPVTPGTPASISCRSSKSLLHSSGITYLSWYLQKPGQSPQLLIYQMSNLASGVPDRFSSSGSGTDFTLKISRVEAEDVGVYYCAQNLELPLTFGQGTKLEIK
notes: IgG1; also called VH5/VK2; VH5Vk2
B2: humanized VH4/Vκ2 antibody (antibody, IgG1, V domains shown)
VH: B1 VH with R72V
VL: B1 VL
notes: IgG1; also called VH4/VK2; VH4Vk2
B3: humanized VH6/Vκ2 antibody (antibody, IgG1, V domains shown)
VH: B1 VH with R65Q
VL: B1 VL
notes: Expressed as IgG1; also called VH6/VK2; VH6Vk2
B4: humanized VH4/Vκ1 antibody (antibody, IgG1, V domains shown)
VH: B1 VH with R72V
VL: B1 VL with V13I, K79R
notes: Expressed as IgG1; also called VH4/VK1; VH4Vk1

target: T1, plasminogen-depleted human Fibrinogen …; test: ELISA on coated human fibrinogen; curve did not reach saturation
Description: The humanized antibodies affinity for fibrinogen, fibrin and P2 peptide were assessed by Enzyme-linked immunosorbent assays (ELISA)s (FIGS. 7-16). ELISAs for fibrinogen binding were performed using plasminogen-depleted human Fibrinogen (EMD/Calbiochem). […] IgG1-depleted Fibrinogen (FGN) in 20 mM HEPES/Saline buffer was added to each well of half of a 96-well Nunc Maxisorp™ ELISA plate. The ELISAs for fibrin binding were prepared by adding 50 mL of 20 mM HEPES/Saline buffer containing 14 mM CaCl₂, and 2 units thrombin to each well of the second half of the Nunc Maxisorp™ ELISA plate. 50 mL of 20 mg fibrinogen in 20 mM HEPES/Saline buffer were then added to a total volume of 100 mL. Plates were placed in a 37° C. incubator for 1 hour to allow fibrinogen to clot into fibrin and subsequently placed overnight into a plate dryer at 37° C. overnight. The ELISAs for P2 peptide were prepared by addition of […] of 30 mM P2 peptide in 20 mM HEPES/Saline buffer to each well of a 96-well Nunc Maxisorp™ ELISA plate. Plates were transferred to the plate dryer and dried overnight at 37° C. All ELISAs were preformed using Nunc MaxiSorp 96-well ELISA plates. Blocking was performed using 100 mL 5% BSA in DPBS are incubated at RT for 1 hour. Plates were washed 5× in DPBS containing 0.05% Tween-20 (EL406 was used for the addition of wash buffer only). 50 mL of primary antibodies was diluted in 0.5% BSA in DPBS, and the primary antibodies were added to the plates and incubated for 2 hours at 37° C. Plates were washed 5× in DPBS/Tween. 100 mL secondary antibodies were diluted in 0.5% BSA in DPBS. The secondary antibodies were then added to the plates and incubated for 1 hour at RT. Afterwards, plates were washed 5× in DPBS/Tween. 100 mL of TMB/E substrate solution was added, and the reaction was stopped after 5 minutes with 1N HCl.

Row | EC50 | Binder
1 | ~2.2 µM | B1
2 | ~3.8 µM | B2
3 | ~3.6 µM | B3
4 | ~3.2 µM | B4

Target: T2, P2 peptide comprising SEQ ID NO: 31 …
Test: SPR (Biacore) multicycle, steady state fit; purified IgG captured, P2 peptide analyte
Description: Multicycle kinetics analysis of the variants were also performed to determine antibody affinity. […] At the start of each cycle, antibodies were loaded onto Fc2, Fc3 and Fc4 of the anti-human capture chip (GE Healthcare, Little Chalfont, UK). IgGs were captured at a flow rate of 10 μl/min to give an immobilization level (RL) of ˜1674 RU, the theoretical value to obtain a RMax of ˜50 RU. The surface was then allowed to stabilize. Kinetic data was obtained with P2 peptide as analyte using a flow rate of […] to minimize any potential mass transfer effects. Multiple repeats of a blank and a repeat of three concentrations of the analyte were programmed into the kinetic run in order to check the stability of both the surface and analyte over the kinetic cycles. […] The association phase of the peptide was monitored for 20 seconds and the dissociation phase was monitored for 25 seconds. Regeneration of the anti-human capture surface was conducted using one injection of 3.8 M magnesium chloride. The signal from the reference channel Fc1 was subtracted from that of Fc2, Fc3 and Fc4 to correct for differences in non-specific binding to a reference surface, and the data was then analyzed using steady state analysis due to the low affinity interaction to P2 peptide.

Row | Kd | Relative KD | Binder
5 | 122 µM | 1.88 fold against VH0/VK0 | B1
6 | 79.2 µM | 1.22 fold against VH0/VK0 | B2
7 | 132 µM | 2.04 fold against VH0/VK0 | B3
8 | 86.2 µM | 1.33 fold against VH0/VK0 | B4
